The source of these data is publication PMC6778029.

For data set [1], the target named is T1, hnRNPG wild-type (Homo sapiens, UniProt P38159 1-391). Put plainly: spin-down.
Data set [2] concerns the target hnRNPG RRMmut (Homo sapiens, UniProt P38159 1-391, K9A;F11A;R49A;F51A;F53A). Put plainly: limited proteolysis protection.
Data set [3] deals with T1, hnRNPG wild-type. Kind of data set: limited proteolysis protection.

Chain of hnRNPG RRMmut (P38159 whole entry K9A/F11A/R49A/F51A/F53A): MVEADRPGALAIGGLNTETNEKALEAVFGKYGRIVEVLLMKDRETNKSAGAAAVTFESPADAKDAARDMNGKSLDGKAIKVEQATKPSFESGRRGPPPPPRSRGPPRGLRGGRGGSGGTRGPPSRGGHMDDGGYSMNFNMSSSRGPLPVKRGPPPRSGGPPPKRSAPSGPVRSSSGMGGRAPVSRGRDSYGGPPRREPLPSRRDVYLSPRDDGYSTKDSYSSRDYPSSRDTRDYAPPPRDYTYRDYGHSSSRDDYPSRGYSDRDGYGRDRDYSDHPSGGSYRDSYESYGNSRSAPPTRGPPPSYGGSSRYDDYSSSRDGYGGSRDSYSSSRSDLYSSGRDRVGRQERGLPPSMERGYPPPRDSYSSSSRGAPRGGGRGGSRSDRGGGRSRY
T1 sequence (P38159 whole entry): as the sequence (P38159 whole entry K9A/F11A/R49A/F51A/F53A) above, with A9K, A11F, A49R, A51F, A53F counted along it

For AAUGUGAAGGACUUUCGUAACGGAAGUAAUUCAA (structured_RNA) [MALAT1 hairpin 2515-A], the binding result in data set [1] was “binds”; in data set [2], “no binding”.

AAUGUGAAGGACUUUCGUAACGGAAGUAAUUCAA (structured_RNA, m6A at position 11) [MALAT1 hairpin 2515-m6A]: the binding result in data set [1] is reported as “binds”; in data set [2], “no binding”.

B1: SMN2exon7 RNA (ssRNA)
RNA: GGUUUUAGACAAAAUCAAAAAGAAGGAAGGUGCUCACAUUCCUUAAAUUAAGGA
Regarding B1, the values for the binding result in data set [3] and in data set [2] were “binds” and “no binding”, respectively.

As for GGGUACGACGGAUAUCGUGGGGGGGGAAAUUGCUUUCGGUUCCGACUCUG (structured_RNA) [WEc RNA], the values for the binding result in data set [3] and in data set [2] were “binds” and “no binding”, respectively.
